The target in one test is T1, CT2 (human).
T1 sequence (peptide): LGTYTQDFNKFHTFPQ
The test is described as follows: competition ELISA; antibody pre-incubated with peptide, then on coated CT antigen. On the technique in general: In an ELISA, binding on a coated surface is turned into a signal by an enzyme label.

In another test the target is T2, CT16 (human).
T2 sequence (peptide): FNKF
The test is described as above.

A further test has as its target T3, CT14 (human).
T3 sequence (peptide): DFNKFHTFP
The test is described as above.

Another test concerns the target T4, CT3 (human).
T4 sequence (peptide): NKFHTFPQTAIGVGAP
The description is as above.

Another test has as its target T5, CT18 (human).
T5 sequence (peptide): FNKFHT
The test is described as above.

The next test has as its target T6, CT1 (human).
T6 sequence (peptide): CGNLSTCMLGTYTQDF
Described as above.

Another test concerns the target T7, CT7 (human).
T7 sequence (peptide): TQDFNKFHTFPQ
The description is as above.

In a further test the target is T8, CT11 (human).
T8 sequence (peptide): DFNKFH
The test is described as above.

Another test deals with T9, CT15 (human).
T9 sequence (peptide): DFNKFHTFPQ
The test is described as above.

The target in the next test is T10, CT13 (human).
T10 sequence (peptide): DFNKFHTF
Described as above.

A further test addresses T11, CT17 (human).
T11 sequence (peptide): FNKFH
The test is described as above.

In the next test the target is T12, CT9 (human).
T12 sequence (peptide): QDFNKFHTFP
The test is described as above.

For a further test, the target named is T13, CT12 (human).
T13 sequence (peptide): DFNKFHT
Described as above.

For a further test, the target named is T14, CT10 (human).
T14 sequence (peptide): QDFNKFHTFPQ
The description is as above.

The next test concerns the target T15, CT4 (human).
T15 sequence (peptide): YTQDFNKFHTFP
The test is described as above.

A further test addresses T16, CT6 (human).
T16 sequence (peptide): TQDFNKFHTFP
The description is as above.

For the next test, the target named is T17, CT8 (human).
T17 sequence (peptide): QDFNKFHTF
The description is as above.

The next test deals with T18, CT5 (human).
T18 sequence (peptide): TQDFNKFHTF
The test is described as above.

In test [1] the target is T19, WHO国际标准降钙素(Human NIBSC code:89/620) (Human) (UniProt P01258).
T19 sequence (peptide, looked up): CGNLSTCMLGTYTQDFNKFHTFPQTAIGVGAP
The test is described as follows: sandwich chemiluminescence; CT captured by 10B11 magnetic beads, detected by acridinium ester labelled 14D11.

The next test addresses T20, CT23 (human).
T20 sequence (peptide, C-terminal amide (-NH2)): IGVGAP
The test is described as follows: competition ELISA; antibody pre-incubated with peptide, then on coated CT antigen.

For a further test, the target named is T21, CT22 (human).
T21 sequence (peptide, C-terminal amide (-NH2)): QTAIGVGAP
The description is as above.

A further test addresses CT26 (human). The description is as above.
In another test the target is T22, CT25 (human).
T22 sequence (peptide, C-terminal amide (-NH2)): VGAP
The test is described as above.

For the next test, the target named is T23, CT21 (human).
T23 sequence (peptide, C-terminal amide (-NH2)): HTFPQTAIGVGAP
The test is described as above.

In another test the target is CT24 (human). Described as above.
The target in another test is T24, CT49 (human).
T24 sequence (peptide, C-terminal amide (-NH2)): QTAIGVGAA
The test is described as follows: competition ELISA; antibody pre-incubated with alanine-mutant peptide, then on coated CT antigen.

Another test concerns the target T25, CT47 (human).
T25 sequence (peptide, C-terminal amide (-NH2)): QTAIGAGAP
The test is described as above.

The target in a further test is T26, CT43 (human).
T26 sequence (peptide, C-terminal amide (-NH2)): ATAIGVGAP
The description is as above.

Another test deals with T27, CT45 (human).
T27 sequence (peptide, C-terminal amide (-NH2)): QTAAGVGAP
The description is as above.

A further test concerns the target T28, CT44 (human).
T28 sequence (peptide, C-terminal amide (-NH2)): QAAIGVGAP
The description is as above.

In the next test the target is T29, CT48 (human).
T29 sequence (peptide, C-terminal amide (-NH2)): QTAIGVAAP
Described as above.

The target of the next test is T30, CT46 (human).
T30 sequence (peptide, C-terminal amide (-NH2)): QTAIAVGAP
The description is as above.

B1: 14D11 (antibody, V domains shown)
VH: EVQLQQSGPELVKPGTSVKIFCMTSGYTFTEFTMHWVKKSPGESLEWIGGIFPDNGGSTYNRKFKDKATLTVDRSSRTAYLELRSLTSEDSAVYYCARYYYNGRAYGIYAMDYWGQGTSVTVSS
VL: DVVLTQSPLSLFVSLGDQVSISCRSSQSLVHSNGNTYLHWYQLKTGQSPKLLIYTVSNRFSGVPDRFSGSGSGTDFTLKINRVEAEDLGVYFCSQSKLVPWTFGGGTKLEIK
In the case of B1, the competition rate (对照样品OD值-检测样品OD值)/对照样品OD值 in the test with CT2 (human) was 99%; in the test with CT16 (human), 11%; in the test with CT14 (human), 91%; with CT3 (human), 32%; with CT18 (human) it was 30%; in the test with CT1 (human) it was 1%. For the same molecule, the competition rate (对照样品OD值-检测样品OD值)/对照样品OD值 is 95% with CT7 (human); 68% with CT11 (human); 91% with CT15 (human); 92% with CT13 (human); -14% with CT17 (human); 95% in the test with CT9 (human). Also, the competition rate (对照样品OD值-检测样品OD值)/对照样品OD值 was determined as 92% with CT12 (human); 95% in the test with CT10 (human); 99% with CT4 (human); 94% in the test with CT6 (human); 92% with CT8 (human); 91% in the test with CT5 (human). The molecule further returned a 发光值 at CT(WHO) 0.125pg/ml in [1] of 1730. The molecule also returned a 发光值 at CT(WHO) 0.25pg/ml in [1] of 2410. The 发光值 at CT(WHO) 0.5pg/ml in test [1] was found to be 4030. Further, the 发光值 at CT(WHO) 1pg/ml in test [1] worked out at 7460. Moreover, the 发光值 at CT(WHO) 2pg/ml in [1] was determined as 13600.

B2: 10B11 (antibody, V domains shown)
VH: SDVQLQESGPGLVKPSQSLSLTCTVTGYSITSDYVWNWIRQFPGNKLEWMGYISYSGSTNYNPSLKSRISITRDTSKNQFFLQLNSVTTEDTATYYCAREDWPAWGQ
VL: DIVMTQSQKLMSTSVGDRVSITCKASQNVRSAVAWYQQKPGQSPKTLIYLTSNRHTGVPDRFTGSGSGTDFTLTINNVQSEDLADYFCLQHWNSPLTFGGGTKLEIK
With B2, the competition rate (对照样品OD值-检测样品OD值)/对照样品OD值 stood at 98% in the test with CT23 (human); 98% in the test with CT22 (human); 60% with CT26 (human); 98% in the test with CT25 (human); 98% with CT21 (human); 98% in the test with CT24 (human). Moreover, the competition rate (对照样品OD值-检测样品OD值)/对照样品OD值 with CT49 (human) amounted to 56%; with CT47 (human) it was 85%; with CT43 (human) it was 97%; with CT45 (human), 97%; with CT44 (human), 98%; with CT48 (human), 62%. Moreover, the competition rate (对照样品OD值-检测样品OD值)/对照样品OD值 with CT46 (human) came out at 92%.

For the origin of these results see patent CN117229395A.
